From article PMC12136795, “RNA modifications and Prp24 coordinate Lsm2–8 binding dynamics during S. cerevisiae U6 snRNP assembly”

How the values were obtained:
Lsm2-8fSNAP (unlabeled) [1] = target: T1, Lsm2-8fSNAP (unlabeled) (Saccharomyces cerevisiae, UniProt P38203;P57743;P40070;P40089;Q06406;P53905;P47093 …); test: fluorescence polarization; Hill 1.35; FP: 2x RNA stock 2 nM mixed 1:1 with protein, 100 mM NaCl, 20 mM Bis-Tris pH 7.0, 10 mM HCl, 1 mM TCEP, 5% glycerol, yeast tRNA, BSA. EMSA: 100 mM KCl, 20% sucrose, 20 mM Hepes pH 7, 1 mM EDTA, 1 mM TCEP, 0.01% Triton X-100 (RNA buffer), yeast tRNA, heparin, BSA, 30 min room temperature, 6% native PAGE at 4 C. CoSMoS buffer not in material.; conditions: protein: recombinant; tags: fast SNAP tag at C terminus of Lsm8 via flexible linker; His-tag removed with TEV; copies: 1;1;1;1;1;1;1; label: fluorophore
T1 sequence 1: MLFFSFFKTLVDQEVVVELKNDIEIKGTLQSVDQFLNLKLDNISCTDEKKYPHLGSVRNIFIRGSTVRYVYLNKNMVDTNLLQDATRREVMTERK
T1 sequence 2: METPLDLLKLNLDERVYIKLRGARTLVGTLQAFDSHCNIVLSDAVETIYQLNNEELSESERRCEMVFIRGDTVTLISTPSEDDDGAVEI
T1 sequence 3: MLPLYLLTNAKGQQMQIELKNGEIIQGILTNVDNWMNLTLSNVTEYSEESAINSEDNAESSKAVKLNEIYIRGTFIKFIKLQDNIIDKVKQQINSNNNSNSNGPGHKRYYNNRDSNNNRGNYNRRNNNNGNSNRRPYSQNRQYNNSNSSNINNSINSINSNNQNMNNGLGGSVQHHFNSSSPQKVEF
T1 sequence 4: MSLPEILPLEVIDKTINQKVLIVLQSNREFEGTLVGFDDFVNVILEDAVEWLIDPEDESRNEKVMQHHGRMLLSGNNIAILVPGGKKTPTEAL
T1 sequence 5: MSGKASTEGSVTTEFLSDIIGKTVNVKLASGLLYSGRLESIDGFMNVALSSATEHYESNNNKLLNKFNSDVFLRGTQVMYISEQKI
T1 sequence 6: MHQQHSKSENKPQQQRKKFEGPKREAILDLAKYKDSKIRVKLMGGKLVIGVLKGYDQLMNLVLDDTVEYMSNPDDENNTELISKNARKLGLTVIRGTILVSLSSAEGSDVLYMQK
T1 sequence 7: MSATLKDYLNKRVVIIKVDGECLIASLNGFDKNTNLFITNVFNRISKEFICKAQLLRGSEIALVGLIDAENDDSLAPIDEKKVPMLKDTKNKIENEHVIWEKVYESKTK

Lsm2-8 heteroheptamer WT [2] = target: T2, Lsm2-8 heteroheptamer WT (Saccharomyces cerevisiae, UniProt P38203;P57743;P40070;P40089;Q06406;P53905;P47093 …); test: fluorescence polarization; Hill 1.26; FP: 2x RNA stock 2 nM mixed 1:1 with protein, 100 mM NaCl, 20 mM Bis-Tris pH 7.0, 10 mM HCl, 1 mM TCEP, 5% glycerol, yeast tRNA, BSA. EMSA: 100 mM KCl, 20% sucrose, 20 mM Hepes pH 7, 1 mM EDTA, 1 mM TCEP, 0.01% Triton X-100 (RNA buffer), yeast tRNA, heparin, BSA, 30 min room temperature, 6% native PAGE at 4 C. CoSMoS buffer not in material.; conditions: protein: recombinant; tags: His-tag removed with TEV; copies: 1;1;1;1;1;1;1; label: fluorophore
T2 sequence 1: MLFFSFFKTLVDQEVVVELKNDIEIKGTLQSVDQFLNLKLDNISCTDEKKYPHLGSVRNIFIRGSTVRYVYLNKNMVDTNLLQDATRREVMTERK
T2 sequence 2: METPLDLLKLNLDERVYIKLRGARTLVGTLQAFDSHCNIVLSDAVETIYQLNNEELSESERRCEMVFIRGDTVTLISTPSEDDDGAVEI
T2 sequence 3: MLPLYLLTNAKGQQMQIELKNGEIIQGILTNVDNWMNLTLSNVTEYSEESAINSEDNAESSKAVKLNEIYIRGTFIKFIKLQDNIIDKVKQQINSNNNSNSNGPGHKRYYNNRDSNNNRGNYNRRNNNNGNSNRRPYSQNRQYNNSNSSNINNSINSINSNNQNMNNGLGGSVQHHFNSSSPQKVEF
T2 sequence 4: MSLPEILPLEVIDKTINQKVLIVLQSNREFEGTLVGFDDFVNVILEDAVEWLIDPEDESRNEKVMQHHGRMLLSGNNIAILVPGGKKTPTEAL
T2 sequence 5: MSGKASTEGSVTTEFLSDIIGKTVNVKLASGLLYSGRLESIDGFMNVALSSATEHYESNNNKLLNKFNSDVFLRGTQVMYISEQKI
T2 sequence 6: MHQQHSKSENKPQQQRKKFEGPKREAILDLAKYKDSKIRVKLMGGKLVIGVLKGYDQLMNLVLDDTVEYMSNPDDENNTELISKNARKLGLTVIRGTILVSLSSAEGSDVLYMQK
T2 sequence 7: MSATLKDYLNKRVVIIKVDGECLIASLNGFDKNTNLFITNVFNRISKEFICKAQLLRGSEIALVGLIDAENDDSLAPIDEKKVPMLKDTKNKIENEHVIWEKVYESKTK

Lsm2-8 heteroheptamer WT [3] = target: T2, Lsm2-8 heteroheptamer WT; test: fluorescence polarization; Hill 1.18; FP: 2x RNA stock 2 nM mixed 1:1 with protein, 100 mM NaCl, 20 mM Bis-Tris pH 7.0, 10 mM HCl, 1 mM TCEP, 5% glycerol, yeast tRNA, BSA. EMSA: 100 mM KCl, 20% sucrose, 20 mM Hepes pH 7, 1 mM EDTA, 1 mM TCEP, 0.01% Triton X-100 (RNA buffer), yeast tRNA, heparin, BSA, 30 min room temperature, 6% native PAGE at 4 C. CoSMoS buffer not in material.; conditions: protein: recombinant; tags: His-tag removed with TEV; copies: 1;1;1;1;1;1;1; label: fluorophore
Lsm2-8fSNAP (unlabeled) [4] = target: T1, Lsm2-8fSNAP (unlabeled); test: fluorescence polarization; Hill 1.12; FP: 2x RNA stock 2 nM mixed 1:1 with protein, 100 mM NaCl, 20 mM Bis-Tris pH 7.0, 10 mM HCl, 1 mM TCEP, 5% glycerol, yeast tRNA, BSA. EMSA: 100 mM KCl, 20% sucrose, 20 mM Hepes pH 7, 1 mM EDTA, 1 mM TCEP, 0.01% Triton X-100 (RNA buffer), yeast tRNA, heparin, BSA, 30 min room temperature, 6% native PAGE at 4 C. CoSMoS buffer not in material.; conditions: protein: recombinant; tags: fast SNAP tag at C terminus of Lsm8 via flexible linker; His-tag removed with TEV; copies: 1;1;1;1;1;1;1; label: fluorophore
Lsm2-8fSNAP (unlabeled) [5] = target: T1, Lsm2-8fSNAP (unlabeled); test: fluorescence polarization; Hill 0.88; FP: 2x RNA stock 2 nM mixed 1:1 with protein, 100 mM NaCl, 20 mM Bis-Tris pH 7.0, 10 mM HCl, 1 mM TCEP, 5% glycerol, yeast tRNA, BSA. EMSA: 100 mM KCl, 20% sucrose, 20 mM Hepes pH 7, 1 mM EDTA, 1 mM TCEP, 0.01% Triton X-100 (RNA buffer), yeast tRNA, heparin, BSA, 30 min room temperature, 6% native PAGE at 4 C. CoSMoS buffer not in material.; conditions: protein: recombinant; tags: fast SNAP tag at C terminus of Lsm8 via flexible linker; His-tag removed with TEV; copies: 1;1;1;1;1;1;1; label: fluorophore
Lsm2-8 heteroheptamer WT [6] = target: T2, Lsm2-8 heteroheptamer WT; test: fluorescence polarization; Hill 1.11; FP: 2x RNA stock 2 nM mixed 1:1 with protein, 100 mM NaCl, 20 mM Bis-Tris pH 7.0, 10 mM HCl, 1 mM TCEP, 5% glycerol, yeast tRNA, BSA. EMSA: 100 mM KCl, 20% sucrose, 20 mM Hepes pH 7, 1 mM EDTA, 1 mM TCEP, 0.01% Triton X-100 (RNA buffer), yeast tRNA, heparin, BSA, 30 min room temperature, 6% native PAGE at 4 C. CoSMoS buffer not in material.; conditions: protein: recombinant; tags: His-tag removed with TEV; copies: 1;1;1;1;1;1;1; label: fluorophore

With AGAGAUUUAUUUCGUUUU (ssRNA, 3' cis-diol (2',3'-OH)) [U6 95-112-OH] the Kd (Lsm2-8fSNAP (unlabeled) [1]) was 114 ± 16.8 nM and the Kd (Lsm2-8 heteroheptamer WT [2]) was 84.6 ± 16.8 nM.

With AGAGAUUUAUUUCGUUUUU (ssRNA, 3' cis-diol (2',3'-OH)) [U6 95-113-OH] the Kd (Lsm2-8 heteroheptamer WT [3]) was 6.75 ± 1.15 nM and the Kd (Lsm2-8fSNAP (unlabeled) [4]) was 6.7 ± 1.1 nM.

In the case of AGAGAUUUAUUUCGUUUU (ssRNA, 3' phosphate) [U6 95-112-P], the Kd (Lsm2-8fSNAP (unlabeled) [5]) is reported as 12.8 ± 3.87 nM and the Kd (Lsm2-8 heteroheptamer WT [6]) is reported as 10.3 ± 4.1 nM.
